What was measured:
[1] = target: human angiotensin 2 type 1 receptor (human) (UniProt P30556); experiment: cell-based or functional assay
[2] = target: rat angiotensin 2 type 1 receptor (rat) (UniProt P25095); experiment: cell-based or functional assay
Chain of rat angiotensin 2 type 1 receptor (rat) (P25095 whole entry): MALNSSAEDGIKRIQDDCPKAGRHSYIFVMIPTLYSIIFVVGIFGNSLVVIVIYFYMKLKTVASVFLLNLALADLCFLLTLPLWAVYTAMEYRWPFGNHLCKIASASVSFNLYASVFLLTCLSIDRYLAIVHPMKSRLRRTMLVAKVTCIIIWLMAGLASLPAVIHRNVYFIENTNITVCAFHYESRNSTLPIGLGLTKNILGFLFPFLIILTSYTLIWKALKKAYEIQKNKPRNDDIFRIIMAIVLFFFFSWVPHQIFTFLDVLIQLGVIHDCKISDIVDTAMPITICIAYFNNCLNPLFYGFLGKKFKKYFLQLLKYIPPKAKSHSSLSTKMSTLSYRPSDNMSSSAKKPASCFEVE

Chain of human angiotensin 2 type 1 receptor (human) (P30556 whole entry): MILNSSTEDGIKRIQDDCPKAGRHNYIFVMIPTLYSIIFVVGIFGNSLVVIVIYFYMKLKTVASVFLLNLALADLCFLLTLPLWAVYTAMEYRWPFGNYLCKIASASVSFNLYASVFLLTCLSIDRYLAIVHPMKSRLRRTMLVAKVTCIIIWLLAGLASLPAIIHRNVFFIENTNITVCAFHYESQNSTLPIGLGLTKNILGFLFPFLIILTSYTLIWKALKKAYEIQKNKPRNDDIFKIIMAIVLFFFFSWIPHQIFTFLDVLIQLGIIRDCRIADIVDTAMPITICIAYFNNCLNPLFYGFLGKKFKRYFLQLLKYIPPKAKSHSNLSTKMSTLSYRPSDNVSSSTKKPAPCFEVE

Row | Substance | IP One EC50 [1] | b-arrestin2 EC50 [1] | b-arrestin2 Max [1] | IP One EC50 [2] | IP One Max [2] | b-arrestin2 EC50 [2] | b-arrestin2 Max [2] | IP One Max [1]
1 | SEQ ID NO: 8 (Sar-Arg-Val-Tyr-Val-His-Pro-Ala-NH2) (peptide) | > 10000 nM | 210 nM | 36.9% | 35 nM | 11.3% | 200 nM | 41.8% | –
2 | SEQ ID NO: 25 (Asp-Arg-Val-Tyr-Ile-His-Pro-Ala-OH) (peptide) | – | – | 57.9% | – | 14.1% | – | 77% | –
3 | SEQ ID NO: 64 (Glu-Arg-Val-Tyr-Phe-His-Pro-NH2) (peptide) | > 10000 nM | 1200 nM | 20.4% | > 10000 nM | – | 870 nM | 26.9% | –
4 | SEQ ID NO: 65 (N-Me-Asp-Arg-Val-Tyr-Phe-His-Pro-NH2) (peptide) | > 10000 nM | 2000 nM | 37.8% | > 10000 nM | – | 2800 nM | 67.3% | –
5 | SEQ ID NO: 66 (N-Me-Glu-Arg-Val-Tyr-Phe-His-Pro-NH2) (peptide) | > 10000 nM | 6700 nM | 30.6% | > 10000 nM | – | 10000 nM | 58.5% | –
6 | SEQ ID NO: 32 (Me2G-Arg-Val-Tyr-Ile-His-Pro-Ala-OH) (peptide) | – | 79 nM | 55.6% | 24 nM | 6.8% | 43 nM | 80.2% | –
7 | SEQ ID NO: 83 (Sar-Arg-Val-Tyr-NVA-His-Pro-D-Ala-OH) (peptide) | > 10000 nM | 200 nM | 34.3% | > 10000 nM | – | 50 nM | 70.2% | –
8 | SEQ ID NO: 27 (Sar-Arg-Val-Tyr-Ile-His-Pro-D-Ala-OH) (peptide) | – | – | – | > 10000 nM | – | 16 nM | 84.2% | –
9 | SEQ ID NO: 5 (Sar-Arg-Val-Gly-Val-His-Pro-Gly-OH) (peptide) | 65 nM | 1600 nM | 39.4% | 96 nM | 24.8% | 1900 nM | 61.7% | 18.1%
10 | SEQ ID NO: 30 (Sar-Arg-Val-Tyr-OMTh-His-Pro-Ala-OH) (peptide) | > 10000 nM | 9.2 nM | 68.2% | > 10000 nM | – | 8.2 nM | 80.4% | –
11 | SEQ ID NO: 9 (Sar-Arg-Val-Tyr-Ile-His-Pro-Ala-OH) (peptide) | – | – | – | – | 9.5% | – | 74% | –
12 | SEQ ID NO: 6 (Sar-Arg-Val-Gly-Val-His-Pro-Gly-NH2) (peptide) | 110 nM | 920 nM | 12.1% | 59 nM | 21.9% | > 10000 nM | – | 14.1%
13 | SEQ ID NO: 3 (Sar-Arg-Val-Ile-Val-His-Pro-Ile-OH) (peptide) | > 10000 nM | 450 nM | 36.5% | 41 nM | 19.6% | 120 nM | 67.1% | –
14 | SEQ ID NO: 29 (Sar-Arg-Val-OMTyr-Ile-His-Pro-Ala-OH) (peptide) | > 10000 nM | 590 nM | 43.3% | > 10000 nM | – | 200 nM | 64.8% | –
15 | SEQ ID NO: 2 (Sar-Arg-Val-Ile-Ile-His-Pro-Ile-NH2) (peptide) | – | – | 24.9% | 360 nM | 33.8% | – | – | –
16 | SEQ ID NO: 10 (Sar-Arg-Val-Tyr-Ile-His-Pro-Ala-NH2) (peptide) | – | – | – | – | 13.3% | – | 60.3% | –
